Results reported in IntAct's records for PubMed 23700447.

B1: Membrane protein (Human SARS coronavirus), P59596 (parent)
chain: MADNGTITVEELKQLLEQWNLVIGFLFLAWIMLLQFAYSNRNRFLYIIKLVFLWLLWPVTLACFVLAAVYRINWVTGGIAIAMACIVGLMWLSYFVASFRLFARTRSMWSFNPETNILLNVPLRGTIVTRPLMESELVIGAVIIRGHLRMAGHSLGRCDIKDLPKEITVATSRTLSYYKLGASQRVGTDSGFAAYNRYRIGNYKLNTDHAGSNDNIALLVQ

Variants of: B1
Conditions: with ncap_sars N

**Q.** For L218A;L219A, which “effect of a mutation on the interaction” value is on record?
**A.** Its value is “with no effect”.
